Residue numbers refer to the chain shown, from its start. Names and notes keep the numbering of the source.

We go through six molecules from patent US20110059077A1 (JURIDICAL FDN THE CHEMO SERO THERAPEUTIC RES INST, published 2011).

B1: mouse anti-human α9 integrin antibody Y9A2 (antibody, V domains shown)
VH: QVQLQQSGAELANPGASVKMSCKASGYTLTTYWMHWVKQRPGQGLEWIGYINPSSGYTEYNQKFKDKATLTADKSSSTAYMQLTSLTSEDSAVYYCAIYGDYGDFYFDYWGQGTTLTVSS
VL: SIVMTQTPKFLLVSAGDRVTMTCKASQSVNTDVAWFQQKPGQSPKLLIYFASNHYTGVPDRFTGSGYGTDFTFTISTVQAEDLAIYFCRQDYSSPFTFGGGTKLEIKR
B2: RY9A2v11(M34L)012 antibody (antibody, human IgG1, kappa, V domains shown)
VH: QVQLVQSGAEVKKPGSSVKMSCKASGYTLTTYWLHWVKQRPGQGLEWIGYINPSSGYTEYNQKFQGRVTITADKSTSTAYMELSSLRSEDTAVYYCAIYGDYGDFYFDYWGQGTTVTVSS
VL: DIQMTQSPSSLSASVGDRVTITCRASQSVNTDVAWYQQKPGKAPKLLIYFASNHYTGVPSRFSGSGSGTDFTFTISSLQPEDIATYYCRQDYSSPFTFGGGTKVEIKR
B3: RY9A2v5(IAW)01 antibody (antibody, human IgG1, kappa, V domains shown)
VH: B2 VH with L34I, Q65K, G66D, D104A, F105W
VL: B2 VL with R24K
B4: RY9A2v12(M34L)012 antibody (antibody, human IgG1, kappa, V domains shown)
VH: B2 VH with M20V, K38R, R40A, I48M
VL: B2 VL
B5: RY9A2v501 antibody (antibody, V domains shown)
VH: B2 VH with L34M, Q65K, G66D
VL: B2 VL with R24K
B6: RY9A2v801 antibody (antibody, V domains shown)
VH: B2 VH with M20V, L34M, K38R, R40A, I48M, Q65K, G66D
VL: B2 VL with R24K

For one assay, the target named is T1, human α9 integrin molecule expressed on SW480 cells (human, UniProt Q13797 30-1035; P05556 21-798). Kind of assay: cell-based or functional assay.
T1 sequence (Q13797 30-1035, form in doubt, chain 1 of 2): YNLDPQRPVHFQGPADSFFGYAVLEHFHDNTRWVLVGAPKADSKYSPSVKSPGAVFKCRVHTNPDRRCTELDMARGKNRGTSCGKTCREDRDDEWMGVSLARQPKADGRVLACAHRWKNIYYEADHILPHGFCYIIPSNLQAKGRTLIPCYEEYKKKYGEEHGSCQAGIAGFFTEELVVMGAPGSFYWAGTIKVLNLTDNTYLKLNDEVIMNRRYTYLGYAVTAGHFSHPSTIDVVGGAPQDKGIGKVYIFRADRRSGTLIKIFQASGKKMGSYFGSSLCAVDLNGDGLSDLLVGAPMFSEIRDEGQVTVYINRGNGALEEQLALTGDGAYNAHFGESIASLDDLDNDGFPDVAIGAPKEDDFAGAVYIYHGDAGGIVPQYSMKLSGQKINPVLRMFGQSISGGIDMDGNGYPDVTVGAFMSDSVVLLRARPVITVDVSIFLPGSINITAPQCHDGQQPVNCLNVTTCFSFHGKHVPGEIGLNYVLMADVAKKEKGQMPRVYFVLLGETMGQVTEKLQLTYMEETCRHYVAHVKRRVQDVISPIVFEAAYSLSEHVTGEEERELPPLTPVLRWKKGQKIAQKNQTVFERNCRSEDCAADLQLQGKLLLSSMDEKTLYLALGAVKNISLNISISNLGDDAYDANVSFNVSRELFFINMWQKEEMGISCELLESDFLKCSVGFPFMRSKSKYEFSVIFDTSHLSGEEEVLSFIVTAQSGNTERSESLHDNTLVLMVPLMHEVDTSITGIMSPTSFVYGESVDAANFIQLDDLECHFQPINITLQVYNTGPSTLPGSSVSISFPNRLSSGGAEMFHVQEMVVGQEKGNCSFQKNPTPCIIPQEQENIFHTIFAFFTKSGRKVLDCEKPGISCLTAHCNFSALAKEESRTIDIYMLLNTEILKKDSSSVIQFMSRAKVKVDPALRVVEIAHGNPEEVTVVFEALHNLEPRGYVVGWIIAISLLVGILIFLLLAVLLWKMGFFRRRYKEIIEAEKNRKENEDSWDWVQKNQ
T1 sequence (P05556 21-798, form in doubt, chain 2 of 2): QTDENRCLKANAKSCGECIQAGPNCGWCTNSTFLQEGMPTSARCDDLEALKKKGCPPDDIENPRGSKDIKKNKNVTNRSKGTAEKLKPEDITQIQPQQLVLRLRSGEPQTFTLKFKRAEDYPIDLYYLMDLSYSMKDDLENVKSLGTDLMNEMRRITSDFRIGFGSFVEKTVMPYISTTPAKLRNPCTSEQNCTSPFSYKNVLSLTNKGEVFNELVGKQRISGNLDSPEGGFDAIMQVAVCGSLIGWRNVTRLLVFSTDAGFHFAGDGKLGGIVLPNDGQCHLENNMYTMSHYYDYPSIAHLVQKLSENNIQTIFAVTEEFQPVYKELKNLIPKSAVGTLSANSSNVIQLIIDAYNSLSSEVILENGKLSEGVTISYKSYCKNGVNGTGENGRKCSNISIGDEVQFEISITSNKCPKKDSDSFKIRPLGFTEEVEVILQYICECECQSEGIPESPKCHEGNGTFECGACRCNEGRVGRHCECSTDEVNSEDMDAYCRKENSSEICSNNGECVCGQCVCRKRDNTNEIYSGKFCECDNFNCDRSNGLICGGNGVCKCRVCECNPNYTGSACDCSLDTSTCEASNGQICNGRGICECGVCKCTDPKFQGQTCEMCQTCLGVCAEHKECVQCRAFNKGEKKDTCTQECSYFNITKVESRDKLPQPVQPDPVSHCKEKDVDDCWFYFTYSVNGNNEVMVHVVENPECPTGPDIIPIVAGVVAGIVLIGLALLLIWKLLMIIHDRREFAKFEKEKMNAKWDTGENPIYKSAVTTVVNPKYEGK
On to B1, for which the “specific activity (IC50 relative to mouse Y9A2 = 1), cell adhesion inhibition to human Tenascin C-RAA” value is 1 ratio to IC50 of mouse Y9A2 and the “specific activity (IC50 relative to mouse Y9A2 = 1), cell adhesion inhibition to human VCAM-1” value is 1 ratio to IC50 of mouse Y9A2.
In the case of B2, the “specific activity (IC50 relative to mouse Y9A2 = 1), cell adhesion inhibition to human Tenascin C-RAA” value was 0.35 ratio to IC50 of mouse Y9A2 and the “specific activity (IC50 relative to mouse Y9A2 = 1), cell adhesion inhibition to human VCAM-1” value was 0.44 ratio to IC50 of mouse Y9A2.
For B3 the same measures were 0.44 ratio to IC50 of mouse Y9A2 and 1 ratio to IC50 of mouse Y9A2.
Consider B4, for which the “specific activity (IC50 relative to mouse Y9A2 = 1), cell adhesion inhibition to human Tenascin C-RAA” value was 0.26 ratio to IC50 of mouse Y9A2 and the “specific activity (IC50 relative to mouse Y9A2 = 1), cell adhesion inhibition to human VCAM-1” value is 0.95 ratio to IC50 of mouse Y9A2.

Another assay concerns the target T1, human α9 integrin molecule expressed on …. Kind of assay: cell-based or functional assay. This is another data set of the same source.
Regarding B1, the “specific activity (IC50 relative to mouse Y9A2 = 1), cell adhesion inhibition, SW480/hα9 cells to nOPN-RAA” value was 1 ratio to IC50 of mouse Y9A2.
Still for that read-out and setting: then B2, with 0.23 ratio to IC50 of mouse Y9A2; and B3, with 0.29 ratio to IC50 of mouse Y9A2.
For the molecule B4, the “specific activity (IC50 relative to mouse Y9A2 = 1), cell adhesion inhibition, SW480/hα9 cells to nOPN-RAA” value was 0.23 ratio to IC50 of mouse Y9A2.

A further assay has the same target. Kind of assay: cell-based or functional assay. The source holds these as a separate data set.
With B1, the “specific activity (IC50 relative to mouse Y9A2 = 1), cell adhesion inhibition, SW480/hα9 cells to nOPN-RAA” value was 1 ratio to IC50 of mouse Y9A2.
On the same count and under the same terms, the result for B5 reads 0.77 ratio to IC50 of mouse Y9A2; that for B6, 0.82 ratio to IC50 of mouse Y9A2.
